Measured values as given in the supplement of paper PMC10567573.

B1: TRIM63 (parent)
chain: QRITQEQEKKLSFIEALIQQYQEQ

Variants of: B1
Assay: protein stability index of a GFP-peptide fusion (GPS, HEK-293T) (PSI 1-6); higher = more stable
Conditions: c terminus: a fixed tail appended
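Further: lentivirally expressed fusions sorted by FACS into six bins by GFP to DsRed ratio, PSI derived from sequencing read proportions per bin multiplied by bin number.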

Protein stability index: each site, then its substitutions
T4: R 2.79; N 2.59; V 2.87; C 2.1; K 2.8; W 1.71; A 3.01; F 2.2; P 2.87; Y 1.66; Q 2.89; I 2.55; G 2.73; D 3.22; H 1.8; M 2.7; S 2.5; L 2.63; E 3.19
Q7: T 3.54; V 3.28; K 1.96; L 3.44; P 2.31; A 2.16; S 2.86; F 2.02; Y 2.12; M 2.46; R 2.29; C 2.83; E 2.76; N 3.1; D 3.02; G 1.83; I 4.42; W 3.76; H 2.32
L11: Q 3.08; A 3.13; W 2.26; D 3.94; I 2.64; G 2.53; R 2.24; V 1.95; H 2.8; N 2.79; C 2.35; F 1.87; Y 2.79; S 2.63; T 2.54; M 1.82; K 1.56; E 3.98; P 2.78
E8: L 1.86; K 2.12; R 1.56; F 2.03; P 1.66; G 1.87; N 1.97; C 2.09; A 2.18; S 2.17; T 2.28; D 1.95; M 1.62; Y 1.82; Q 2.12; I 1.9; H 1.75
I3: P 2.62; Y 2.16; M 1.83; R 2.76; N 2.48; T 2.39; W 2.44; Q 2.33; V 2.56; S 2.59
K9: E 3.27; Y 2.2; T 2.41; C 2.29; L 1.88; P 3.01; Q 2.82; G 2.78; A 2.6; I 1.79; W 3.8; S 2.7; F 2.78; R 2.74; M 2.44; D 2.77; V 2.22; H 2.6
Q5: F 1.73; M 2.33; H 2.05; V 1.94; I 2.39; K 2.82; A 2.5; Y 2.27; E 2.98; L 1.68; D 2.74; P 2.13; R 2.24; T 2.58; N 2.32; S 2.17; W 1.24; C 2.39; G 2.62
E6: M 2.27; A 2.24; C 1.83; W 1.43; Q 1.75; R 1.88; S 2.09; H 1.71; I 1.62; N 1.73; G 2.39; L 1.8; K 2; D 2.12; P 1.97; F 1.9; T 1.7; V 1.81
K10: A 2.1; E 3; N 3; Y 1.73; I 2.57; F 2.1; C 2.04; G 3.58; V 2.02; L 1.72; Q 1.95; T 2.2; D 3.67; S 2.73; W 2.05; H 2.7; P 2.77; R 2.47
S12: D 2.86; F 2.56; G 2.71; M 1.86; I 2.12; L 2.39; C 2.25; H 2.9; A 3.19; K 1.91
